Experimental data from publication PMC4897735, “Acousto-microfluidics for screening of ssDNA aptamer”.

Biological target: prostate-specific antigen (PSA) (UniProt P07288 25-261)
Assay: SPR; AS2 3-50 nM, 2 mM MgCl2; SPR (Biacore CM5): PBS pH 7.4, 2 mM MgCl2 (PBSM), 25 °C, 15 µl/min, blank flow cell reference
Conditions: protein: commercial

Chain of prostate-specific antigen (PSA) (P07288 25-261): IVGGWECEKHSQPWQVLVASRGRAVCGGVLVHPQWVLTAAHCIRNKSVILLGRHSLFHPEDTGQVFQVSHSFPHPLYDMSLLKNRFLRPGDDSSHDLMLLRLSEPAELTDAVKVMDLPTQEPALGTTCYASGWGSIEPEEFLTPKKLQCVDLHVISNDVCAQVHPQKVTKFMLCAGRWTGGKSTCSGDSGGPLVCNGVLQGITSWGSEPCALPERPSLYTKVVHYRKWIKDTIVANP

B1: AS2 (ssDNA)
DNA: GGGCGGGGCGGACGAGACAGTAAGGGCTGTGGGTGTGGTG
**Q.** B1 was tested. Which Kd did it give?
**A.** The Kd was 0.7 nM.
